These results are taken from the supplement of paper PMC5998384.

For data set [1], the system named is HeLa Kyoto. As to the kind of experiment: melting temperature (median over replicates), in situ; higher = more thermally stable.
Data set [2] relates to HeLa Kyoto. Nature of the data set: thermal stability score vs G1/S (z-score of summed log2 fold changes over temperatures); higher = more thermally stable than in G1/S.
The test system of data set [3] is HeLa Kyoto. As to the kind of experiment: solubility change mitosis vs G1/S (difference of NP-40 vs SDS log2 ratios) (log2 ratio difference); higher = more soluble in mitosis.
Data set [4] has as its system HeLa Kyoto. As to the kind of experiment: solubility in G1/S (NP-40 vs SDS abundance) (log2 ratio); higher = more soluble. The following applies: cell cycle stage: G1/S.
Where [5] appears, read: cell cycle stage: early G1 (4.5 h after nocodazole release).
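Wherever melting temperature (median over replicates), in situ is given: HeLa Kyoto cells synchronized by double thymidine or nocodazole block, proteins quantified by TMT10plex mass spectrometry, three independent biological replicates.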
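Wherever solubility change mitosis vs G1/S (difference of NP-40 vs SDS log2 ratios) is given: synchronized HeLa Kyoto cells (double thymidine block for G1/S, nocodazole release for mitosis), protein amounts in NP-40 versus SDS lysates quantified by mass spectrometry, three biological replicates.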
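Wherever solubility in G1/S (NP-40 vs SDS abundance) is given: HeLa Kyoto cells arrested at G1/S by double thymidine block, proteins quantified by TMT10plex mass spectrometry in mild NP-40 versus SDS extracts, three biological replicates.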
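Wherever thermal stability score vs G1/S (z-score of summed log2 fold changes over temperatures) is given: synchronized HeLa Kyoto cells, proteins quantified by TMT10plex mass spectrometry, three biological replicates, mitosis taken 0.5 h after nocodazole release, G1/S directly after double thymidine block.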

Turning to “MLSSCVRPVPTTVRFVDSLICNSSRSFMDLKALLSSLNDFASLSFAESWDNVGLLVEPSPPHTVNTLFLTNDLTEEVMEEVLQKKADLILSYHPPIFRPMKRITWNTWKERLVIRALENRVGIYSPHTAYDAAPQGVNNWLAKGLGACTSRPIHPSKAPNYPTEGNHRVEFNVNYTQDLDKVMSAVKGIDGVSVTSFSARTGNEEQTRINLNCTQKALMQVVDFLSRNKQLYQKTEILSLEKPLLLHTGMGRLCTLDESVSLATMIDRIKRHLKLSHIRLALGVGRTLESQVKVVALCAGSGSSVLQGVEADLYLTGEMSHHDTLDAASQGINVILCEHSNTERGFLSDLRDMLDSHLENKINIILSETDRDPLQVV [NIF3L1]”, the melting temperature in the data set with HeLa Kyoto [1] (cell cycle stage: G1/S) was 60.8 °C; in the data set on HeLa Kyoto [1] (cell cycle stage: mitosis), 60.7 °C. The figures for the thermal stability score in the data set on HeLa Kyoto [2] (setting [5]) and with HeLa Kyoto [2] (cell cycle stage: mitosis) were -0.711 and -0.332, respectively. Also, the “solubility change mitosis (log2)” value in the data set on HeLa Kyoto [3] is -0.161. In the data set on HeLa Kyoto [4], the “solubility in G1/S (log2)” value turned out to be 0.187.
For “MLSVRVAAAVVRALPRRAGLVSRNALGSSFIAARNFHASNTHLQKTGTAEMSSILEERILGADTSVDLEETGRVLSIGDGIARVHGLRNVQAEEMVEFSSGLKGMSLNLEPDNVGVVVFGNDKLIKEGDIVKRTGAIVDVPVGEELLGRVVDALGNAIDGKGPIGSKTRRRVGLKAPGIIPRISVREPMQTGIKAVDSLVPIGRGQRELIIGDRQTGKTSIAIDTIINQKRFNDGSDEKKKLYCIYVAIGQKRSTVAQLVKRLTDADAMKYTIVVSATASDAAPLQYLAPYSGCSMGEYFRDNGKHALIIYDDLSKQAVAYRQMSLLLRRPPGREAYPGDVFYLHSRLLERAAKMNDAFGGGSLTALPVIETQAGDVSAYIPTNVISITDGQIFLETELFYKGIRPAINVGLSVSRVGSAAQTRAMKQVAGTMKLELAQYREVAAFAQFGSDLDAATQQLLSRGVRLTELLKQGQYSPMAIEEQVAVIYAGVRGYLDKLEPSKITKFENAFLSHVVSQHQALLGTIRADGKISEQSDAKLKEIVTNFLAGFEA [ATP5A1]”, the values for the melting temperature in the data set with HeLa Kyoto [1] (cell cycle stage: G1/S) and in the data set on HeLa Kyoto [1] (cell cycle stage: mitosis) were 59.9 °C and 58.9 °C, respectively. Also, the thermal stability score in the data set on HeLa Kyoto [2] (setting [5]) is -1.58; in the data set on HeLa Kyoto [2] (cell cycle stage: mitosis), -1.35. Further, in the data set with HeLa Kyoto [3], the “solubility change mitosis (log2)” value is -0.0479. Also, in the data set on HeLa Kyoto [4], the “solubility in G1/S (log2)” value was 0.231.
For the sequence “MLTLQTWLVQALFIFLTTESTGELLDPCGYISPESPVVQLHSNFTAVCVLKEKCMDYFHVNANYIVWKTNHFTIPKEQYTIINRTASSVTFTDIASLNIQLTCNILTFGQLEQNVYGITIISGLPPEKPKNLSCIVNEGKKMRCEWDGGRETHLETNFTLKSEWATHKFADCKAKRDTPTSCTVDYSTVYFVNIEVWVEAENALGKVTSDHINFDPVYKVKPNPPHNLSVINSEELSSILKLTWTNPSIKSVIILKYNIQYRTKDASTWSQIPPEDTASTRSSFTVQDLKPFTEYVFRIRCMKEDGKGYWSDWSEEASGITYEDRPSKAPSFWYKIDPSHTQGYRTVQLVWKTLPPFEANGKILDYEVTLTRWKSHLQNYTVNATKLTVNLTNDRYLATLTVRNLVGKSDAAVLTIPACDFQATHPVMDLKAFPKDNMLWVEWTTPRESVKKYILEWCVLSDKAPCITDWQQEDGTVHRTYLRGNLAESKCYLITVTPVYADGPGSPESIKAYLKQAPPSKGPTVRTKKVGKNEAVLEWDQLPVDVQNGFIRNYTIFYRTIIGNETAVNVDSSHTEYTLSSLTSDTLYMVRMAAYTDEGGKDGPEFTFTTPKFAQGEIEAIVVPVCLAFLLTTLLGVLFCFNKRDLIKKHIWPNVPDPSKSHIAQWSPHTPPRHNFNSKDQMYSDGNFTDVSVVEIEANDKKPFPEDLKSLDLFKKEKINTEGHSSGIGGSSCMSSSRPSISSSDENESSQNTSSTVQYSTVVHSGYRHQVPSVQVFSRSESTQPLLDSEERPEDLQLVDHVDGGDGILPRQQYFKQNCSQHESSPDISHFERSKQVSSVNEEDFVRLKQQISDHISQSCGSGQMKMFQEVSAADAFGPGTEGQVERFETVGMEAATDEGMPKSYLPQTVRQGGYMPQ [IL6ST]”, the melting temperature in the data set on HeLa Kyoto [1] (cell cycle stage: G1/S) was 53.9 °C; with HeLa Kyoto [1] (cell cycle stage: mitosis), 56.2 °C. Besides, the thermal stability score is -2.55 with HeLa Kyoto [2] (setting [5]) and -3.18 in the data set on HeLa Kyoto [2] (cell cycle stage: mitosis). For the same sequence, the “solubility change mitosis (log2)” value with HeLa Kyoto [3] was found to be 0.0736. Moreover, in the data set with HeLa Kyoto [4], the “solubility in G1/S (log2)” value worked out at 0.0822.
On to “MLTTLKPFGSVSVESKMNNKAGSFFWNLRQFSTLVSTSRTMRLCCLGLCKPKIVHSNWNILNNFHNRMQSTDIIRYLFQDAFIFKSDVGFQTKGISTLTALRIERLLYAKRLFFDSKQSLVPVDKSDDELKKVNLNHEVSNEDVLTKETKPNRISSRKLSEECNSLSDVLDAFSKAPTFPSSNYFTAMWTIAKRLSDDQKRFEKRLMFSHPAFNQLCEHMMREAKIMQYKYLLFSLHAIVKLGIPQNTILVQTLLRVTQERINECDEICLSVLSTVLEAMEPCKNVHVLRTGFRILVDQQVWKIEDVFTLQVVMKCIGKDAPIALKRKLEMKALRELDRFSVLNSQHMFEVLAAMNHRSLILLDECSKVVLDNIHGCPLRIMINILQSCKDLQYHNLDLFKGLADYVAATFDIWKFRKVLFILILFENLGFRPVGLMDLFMKRIVEDPESLNMKNILSILHTYSSLNHVYKCQNKEQFVEVMASALTGYLHTISSENLLDAVYSFCLMNYFPLAPFNQLLQKDIISELLTSDDMKNAYKLHTLDTCLKLDDTVYLRDIALSLPQLPRELPSSHTNAKVAEVLSSLLGGEGHFSKDVHLPHNYHIDFEIRMDTNRNQVLPLSDVDTTSATDIQRVAVLCVSRSAYCLGSSHPRGFLAMKMRHLNAMGFHVILVNNWEMDKLEMEDAVTFLKTKIYSVEALPVAAVNVQSTQ [FASTKD2]”, for which the melting temperature with HeLa Kyoto [1] (cell cycle stage: G1/S) was found to be 51.8 °C; in the data set on HeLa Kyoto [1] (cell cycle stage: mitosis), 51.1 °C. In addition, the thermal stability score came to 0.322 in the data set with HeLa Kyoto [2] (setting [5]) and 0.825 in the data set with HeLa Kyoto [2] (cell cycle stage: mitosis). In addition, the “solubility change mitosis (log2)” value with HeLa Kyoto [3] is -0.134. Besides, the “solubility in G1/S (log2)” value with HeLa Kyoto [4] was -0.17.
Take “MLVPLAKLSCLAYQCFHALKIKKNYLPLCATRWSSTSTVPRITTHYTIYPRDKDKRWEGVNMERFAEEADVVIVGAGPAGLSAAVRLKQLAVAHEKDIRVCLVEKAAQIGAHTLSGACLDPGAFKELFPDWKEKGAPLNTPVTEDRFGILTEKYRIPVPILPGLPMNNHGNYIVRLGHLVSWMGEQAEALGVEVYPGYAAAEVLFHDDGSVKGIATNDVGIQKDGAPKATFERGLELHAKVTIFAEGCHGHLAKQLYKKFDLRANCEPQTYGIGLKELWVIDEKNWKPGRVDHTVGWPLDRHTYGGSFLYHLNEGEPLVALGLVVGLDYQNPYLSPFREFQRWKHHPSIRPTLEGGKRIAYGARALNEGGFQSIPKLTFPGGLLIGCSPGFMNVPKIKGTHTAMKSGILAAESIFNQLTSENLQSKTIGLHVTEYEDNLKNSWVWKELYSVRNIRPSCHGVLGVYGGMIYTGIFYWILRGMEPWTLKHKGSDFERLKPAKDCTPIEYPKPDGQISFDLLSSVALSGTNHEHDQPAHLTLRDDSIPVNRNLSIYDGPEQRFCPAGVYEFVPVEQGDGFRLQINAQNCVHCKTCDIKDPSQNINWVVPEGGGGPAYNGM [ETFDH]”: the figures for the melting temperature in the data set with HeLa Kyoto [1] (cell cycle stage: G1/S) and in the data set on HeLa Kyoto [1] (cell cycle stage: mitosis) were 54.4 °C and 53.8 °C, respectively. Also, the thermal stability score in the data set on HeLa Kyoto [2] (setting [5]) was -0.885; with HeLa Kyoto [2] (cell cycle stage: mitosis), -1.65. For the same sequence, the “solubility change mitosis (log2)” value in the data set on HeLa Kyoto [3] is -0.184. In addition, in the data set with HeLa Kyoto [4], the “solubility in G1/S (log2)” value is 0.107.
